Results on four molecules are retold here after publication PMC9587256, “The retaining β-Kdo glycosyltransferase WbbB uses a double-displacement mechanism with an intermediate adduct rearrangement step” (Nature Communications, 2022).

In series [1] the target is T1, WbbBGT99 (Klebsiella terrigena, UniProt Q6U8B0).
T1 construct: gene wbbB; WbbBGT99-His6 in pET28a, expressed in E. coli BL21(DE3) or ClearColi BL21(DE3); dimer in native MS
The experiment in a line: native MS and pepsin MS/MS after NaBH4 reduction of the enzyme-Kdo adduct. Conditions: covalent; Kdo transferred to Asp232; donor generated in situ from CTP, Kdo and KdsB; Mg; 5 min then NaBH4, room temperature. The class given is biochemical.

Series [2] deals with the molecule itself. The experiment in a line: native MS; nanoESI, positive mode, UHMR Orbitrap; aqueous ammonium acetate 200 mM, pH 7, 25 °C; +21 charge state of the dimer; before or after reaction with the CMP-Kdo reaction mix.

T1 sequence (Q6U8B0 entry or part of it): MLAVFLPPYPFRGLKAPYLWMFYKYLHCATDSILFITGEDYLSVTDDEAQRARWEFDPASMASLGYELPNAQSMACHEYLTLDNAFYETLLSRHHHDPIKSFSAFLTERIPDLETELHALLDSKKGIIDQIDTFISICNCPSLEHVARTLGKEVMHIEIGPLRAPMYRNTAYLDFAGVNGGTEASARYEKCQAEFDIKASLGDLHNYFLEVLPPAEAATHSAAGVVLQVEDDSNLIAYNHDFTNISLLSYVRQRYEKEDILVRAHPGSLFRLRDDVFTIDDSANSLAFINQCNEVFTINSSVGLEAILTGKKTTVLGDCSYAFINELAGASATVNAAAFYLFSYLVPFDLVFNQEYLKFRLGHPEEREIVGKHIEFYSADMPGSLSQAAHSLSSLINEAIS

For the molecule `Nc1ccn([C@@H]2O[C@H](COP(=O)(O)O[C@@]3(C(=O)O)C[C@@H](O)[C@@H](O)[C@@H]([C@H](O)CO)O3)[C@@H](O)[C@H]2O)c(=O)n1` [CMP-β-Kdo], the “native MS and pepsin MS/MS after NaBH4 reduction of the enzyme-Kdo adduct” value in series [1] is given as “Asp232 is the sole residue that has been converted to homoserine”.

B1: WbbB_(GT99)-E158Q (domain or fragment)
chain: LAVFLPPYPFRGLKAPYLWMFYKYLHCATDSILFITGEDYLSVTDDEAQRARWEFDPASMASLGYELPNAQSMACHEYLTLDNAFYETLLSRHHHDPIKSFSAFLTERIPDLETELHALLDSKKGIIDQIDTFISICNCPSLEHVARTLGKEVMHIQIGPLRAPMYRNTAYLDFAGVNGGTEASARYEKCQAEFDIKASLGDLHNYFLEVLPPAEAATHSAAGVVLQVEDDSNLIAYNHDFTNISLLSYVRQRYEKEDILVRAHPGSLFRLRDDVFTIDDSANSLAFINQCNEVFTINSSVGLEAILTGKKTTVLGDCSYAFINELAGASATVNAAAFYLFSYLVPFDLVFNQEYLKFRLGHPEEREIVGKHIEFYSADMPGSLSQAAHSLSSLINEAIS
notes: source: ClearColi BL21 (DE3) E. coli, purified (IMAC, desalting)
On to B1, for which, in series [2], the “stoichiometry N” value was determined as 2.

B2: WbbB_(GT99)-D232N (domain or fragment)
chain: LAVFLPPYPFRGLKAPYLWMFYKYLHCATDSILFITGEDYLSVTDDEAQRARWEFDPASMASLGYELPNAQSMACHEYLTLDNAFYETLLSRHHHDPIKSFSAFLTERIPDLETELHALLDSKKGIIDQIDTFISICNCPSLEHVARTLGKEVMHIEIGPLRAPMYRNTAYLDFAGVNGGTEASARYEKCQAEFDIKASLGDLHNYFLEVLPPAEAATHSAAGVVLQVEDNSNLIAYNHDFTNISLLSYVRQRYEKEDILVRAHPGSLFRLRDDVFTIDDSANSLAFINQCNEVFTINSSVGLEAILTGKKTTVLGDCSYAFINELAGASATVNAAAFYLFSYLVPFDLVFNQEYLKFRLGHPEEREIVGKHIEFYSADMPGSLSQAAHSLSSLINEAIS
modifications: Kdo modified in ~8% after the CMP-β-Kdo reaction mix; N-terminal methionine removed with variable efficiency
notes: source: ClearColi BL21 (DE3) E. coli, purified (IMAC, desalting), then reacted with the CMP-β-Kdo reaction mix
Turning to B2, in series [2], the “stoichiometry N” value stood at 2.

B3: WbbB_(GT99)-D232C (domain or fragment)
chain: LAVFLPPYPFRGLKAPYLWMFYKYLHCATDSILFITGEDYLSVTDDEAQRARWEFDPASMASLGYELPNAQSMACHEYLTLDNAFYETLLSRHHHDPIKSFSAFLTERIPDLETELHALLDSKKGIIDQIDTFISICNCPSLEHVARTLGKEVMHIEIGPLRAPMYRNTAYLDFAGVNGGTEASARYEKCQAEFDIKASLGDLHNYFLEVLPPAEAATHSAAGVVLQVEDCSNLIAYNHDFTNISLLSYVRQRYEKEDILVRAHPGSLFRLRDDVFTIDDSANSLAFINQCNEVFTINSSVGLEAILTGKKTTVLGDCSYAFINELAGASATVNAAAFYLFSYLVPFDLVFNQEYLKFRLGHPEEREIVGKHIEFYSADMPGSLSQAAHSLSSLINEAIS
notes: as for B2
For the molecule B3, the “stoichiometry N” value in series [2] worked out at 2.

What is called stoichiometry N is the number of molecules, sites or subunits per partner or assembly.
